Columns and labels:
[1] = biological target: bovine plasminogen (bovine) (UniProt P06868); test: cell-based or functional assay
bovine plasminogen = bovine plasminogen (UniProt P06868)
[2] = biological target: T1, bovine plasminogen, P06868
T1 chain: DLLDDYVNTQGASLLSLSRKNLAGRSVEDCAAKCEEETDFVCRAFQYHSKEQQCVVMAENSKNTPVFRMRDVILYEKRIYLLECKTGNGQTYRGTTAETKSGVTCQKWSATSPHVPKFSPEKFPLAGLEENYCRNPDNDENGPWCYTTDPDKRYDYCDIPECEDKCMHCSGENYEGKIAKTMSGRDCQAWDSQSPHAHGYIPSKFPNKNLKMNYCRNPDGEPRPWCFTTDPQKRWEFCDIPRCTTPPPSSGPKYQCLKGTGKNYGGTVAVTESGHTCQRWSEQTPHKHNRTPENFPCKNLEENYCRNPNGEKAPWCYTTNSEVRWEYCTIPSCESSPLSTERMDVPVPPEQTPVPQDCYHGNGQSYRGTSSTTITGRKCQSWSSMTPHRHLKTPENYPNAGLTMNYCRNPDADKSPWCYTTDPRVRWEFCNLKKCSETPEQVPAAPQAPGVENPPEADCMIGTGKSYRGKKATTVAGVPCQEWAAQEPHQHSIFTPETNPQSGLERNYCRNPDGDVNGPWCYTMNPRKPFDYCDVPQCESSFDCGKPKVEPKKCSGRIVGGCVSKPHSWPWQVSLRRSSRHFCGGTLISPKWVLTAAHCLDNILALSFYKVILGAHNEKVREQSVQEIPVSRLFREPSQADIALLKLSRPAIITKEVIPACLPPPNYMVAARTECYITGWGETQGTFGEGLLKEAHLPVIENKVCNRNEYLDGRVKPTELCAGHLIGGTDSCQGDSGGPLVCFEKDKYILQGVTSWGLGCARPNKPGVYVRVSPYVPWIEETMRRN

## full-length recombinant PauA of S. uberis strain 95-140 expressed from pER326 in E. coli strain Pz326 (enzyme)
[1]
  Titer, chromogenic assay of whole cell pellet (titer (inverse of dilution factor)): 23.3

## full-length recombinant PauA of S. uberis strain 95-140 expressed from pER330 in E. coli strain Pz330 (enzyme)
[1]
  Titer, chromogenic assay of whole cell pellet (titer (inverse of dilution factor)): 1

## purified native PauA (strain not stated where used)
Bovine plasminogen
  enzymatic activity, chromogenic assay titer: titer=3256
  specific activity: the specific activity for native PauA was 5.9 chromogenic units/µg

## signal peptide-deleted recombinant PauA of S. uberis strain 95-140 expressed from pER328 in E. coli strain Pz328 (enzyme)
[1]
  Titer, chromogenic assay of whole cell pellet (titer (inverse of dilution factor)): 5.3

B1: GST-PauA^28-286 fusion protein (pER356) (protein)
chain: GYDSDYYARYIDPDENKITFAINVDGFVEGSNQEILIRGIHHVLTNQNQKIVTKAELLDAIRHQMVLLQLDYSYELVDFAPDAQLLTRDRRLLFANRNFEESVSLEDTIQEYLLKGHVILRKRVEEPITHPTETANIEYKVQFATKDGEFHPLPIFVDYGEKHIGEKLTSDEFRKIAEEKLLQRYPDYMIDQKEYTIIKHNSLGQLPRYYSYPDDFSYEIQDRQRIMAKDPKSGKELGETQSIDNVFEKYLITKKSYKP
[2]
  enzymatic activity, chromogenic assay titer: titer=3448
  specific activity: the specific activity of GST-PauA^28-286 was 1.4

B2: PauA from S. uberis strain c216 expressed by E. coli strain Pz318 (plasmid pER318) (protein)
chain: MKKWFLILMLLGIFGCATQPSKVAAITGYDSDYYARYIDPDENKITFAINVDGFVEGSNQEILIRGIHHVLTDQNQKIVTKAELLDAIRHQMVLLQLDYSYELVDFAPDAQLLTQDRRLLFANQNFEESVSLEDTIQEYLLKGHVILRKRVEEPITHPTETANIEYKVQFATKDGEFHPLPIFVDYGEKHIGEKLTSDEFRKIAEEKLLQLYPDYMIDQKEYTIIKHNSLGQLPRYYSYQDHFSYEIQDRQRIMAKDPKSGKELGETQSIDNVFEKYLITKKSYKP
[2]
  zone of clearing on skim-milk plates with or without bovine plasminogen: their ability to express plasminogen-dependent PauA activity was confirmed by their inability to produce a zone of clearing following growth of individual colonies on plasminogen-free skim-milk plates

B3: PauA from S. uberis strain 95-140 expressed by E. coli strain Pz319 (plasmid pER319) (protein)
chain: MKKWFLILMLLGIFGCATQPSKVAAITGYDSDYYARYIDPDENKITFAINVDGFVEGSNQEILIRGIHHVLTNQNQKIVTKAELLDAIRHQMVLLQLDYSYELVDFAPDAQLLTRDRRLLFANRNFEESVSLEDTIQEYLLKGHVILRKRVEEPITHPTETANIEYKVQFATKDGEFHPLPIFVDYGEKHIGEKLTSDEFRKIAEEKLLQRYPDYMIDQKEYTIIKHNSLGQLPRYYSYPDDFSYEIQDRQRIMAKDPKSGKELGETQSIDNVFEKYLITKKSYKP
[2]
  zone of clearing on skim-milk plates with or without bovine plasminogen: their ability to express plasminogen-dependent PauA activity was confirmed by their inability to produce a zone of clearing following growth of individual colonies on plasminogen-free skim-milk plates
